Measured values as given in publication PMC5241874.

B1: αγ heterodimer of human NAD-IDH (IDH3) (Homo sapiens; P51553:R136A) (protein)
chain 1: TGGVQTVTLIPGDGIGPEISAAVMKIFDAAKAPIQWEERNVTAIQGPGGKWMIPSEAKESMDKNKMGLKGPLKTPIAAGHPSMNLLLRKTFDLYANVRPCVSIEGYKTPYTDVNIVTIRENTEGEYSGIEHVIVDGVVQSIKLITEGASKRIAEFAFEYARNNHRSNVTAVHKANIMRMSDGLFLQKCREVAESCKDIKFNEMYLDTVCLNMVQDPSQFDVLVMPNLYGDILSDLCAGLIGGLGVTPSGNIGANGVAIFESVHGTAPDIAGKDMANPTALLLSAVMMLRHMGLFDHAARIEAACFATIKDGKSLTKDLGGNAKCSDFTEEICRRVKDLD
chain 2: FSEQTIPPSAKYGGRHTVTMIPGDGIGPELMLHVKSVFRHACVPVDFEEVHVSSNADEEDIRNAIMAIRRNRVALKGNIETNHNLPPSHKSRNNILATSLDLYANVIHCKSLPGVVTRHKDIDILIVRENTEGEYSSLEHESVAGVVESLKIITKAKSLRIAEYAFKLAQESGRKKVTAVHKANIMKLGDGLFLQCCREVAARYPQITFENMIVDNTTMQLVSRPQQFDVMVMPNLYGNIVNNVCAGLVGGPGLVAGANYGHVYAVFETATRNTGKSIANKNIANPTATLLASCMMLDHLKLHSYATSIRKAVLASMDNENMHTPDIGGQGTTSEAIQDVIRHIRVINGRAVEA
notes: alpha and gamma co-expressed in E. coli BL21(DE3) from pQlinkN; gamma C-terminal TEV-His6, His6 cleaved by TEV; 80 kDa heterodimer (dimer of heterodimers at high concentration)
B2: αγ heterodimer of human NAD-IDH (IDH3) (Homo sapiens; P51553:R311A) (protein)
chain 1: TGGVQTVTLIPGDGIGPEISAAVMKIFDAAKAPIQWEERNVTAIQGPGGKWMIPSEAKESMDKNKMGLKGPLKTPIAAGHPSMNLLLRKTFDLYANVRPCVSIEGYKTPYTDVNIVTIRENTEGEYSGIEHVIVDGVVQSIKLITEGASKRIAEFAFEYARNNHRSNVTAVHKANIMRMSDGLFLQKCREVAESCKDIKFNEMYLDTVCLNMVQDPSQFDVLVMPNLYGDILSDLCAGLIGGLGVTPSGNIGANGVAIFESVHGTAPDIAGKDMANPTALLLSAVMMLRHMGLFDHAARIEAACFATIKDGKSLTKDLGGNAKCSDFTEEICRRVKDLD
chain 2: FSEQTIPPSAKYGGRHTVTMIPGDGIGPELMLHVKSVFRHACVPVDFEEVHVSSNADEEDIRNAIMAIRRNRVALKGNIETNHNLPPSHKSRNNILRTSLDLYANVIHCKSLPGVVTRHKDIDILIVRENTEGEYSSLEHESVAGVVESLKIITKAKSLRIAEYAFKLAQESGRKKVTAVHKANIMKLGDGLFLQCCREVAARYPQITFENMIVDNTTMQLVSRPQQFDVMVMPNLYGNIVNNVCAGLVGGPGLVAGANYGHVYAVFETATANTGKSIANKNIANPTATLLASCMMLDHLKLHSYATSIRKAVLASMDNENMHTPDIGGQGTTSEAIQDVIRHIRVINGRAVEA
notes: as for B1
B3: αγ heterodimer of human NAD-IDH (IDH3) (Homo sapiens; P51553:Y276F) (protein)
chain 1: TGGVQTVTLIPGDGIGPEISAAVMKIFDAAKAPIQWEERNVTAIQGPGGKWMIPSEAKESMDKNKMGLKGPLKTPIAAGHPSMNLLLRKTFDLYANVRPCVSIEGYKTPYTDVNIVTIRENTEGEYSGIEHVIVDGVVQSIKLITEGASKRIAEFAFEYARNNHRSNVTAVHKANIMRMSDGLFLQKCREVAESCKDIKFNEMYLDTVCLNMVQDPSQFDVLVMPNLYGDILSDLCAGLIGGLGVTPSGNIGANGVAIFESVHGTAPDIAGKDMANPTALLLSAVMMLRHMGLFDHAARIEAACFATIKDGKSLTKDLGGNAKCSDFTEEICRRVKDLD
chain 2: FSEQTIPPSAKYGGRHTVTMIPGDGIGPELMLHVKSVFRHACVPVDFEEVHVSSNADEEDIRNAIMAIRRNRVALKGNIETNHNLPPSHKSRNNILRTSLDLYANVIHCKSLPGVVTRHKDIDILIVRENTEGEYSSLEHESVAGVVESLKIITKAKSLRIAEYAFKLAQESGRKKVTAVHKANIMKLGDGLFLQCCREVAARYPQITFENMIVDNTTMQLVSRPQQFDVMVMPNLFGNIVNNVCAGLVGGPGLVAGANYGHVYAVFETATRNTGKSIANKNIANPTATLLASCMMLDHLKLHSYATSIRKAVLASMDNENMHTPDIGGQGTTSEAIQDVIRHIRVINGRAVEA
notes: as for B1
B4: αγ heterodimer of human NAD-IDH (IDH3) (Homo sapiens; P51553:D229A) (protein)
chain 1: TGGVQTVTLIPGDGIGPEISAAVMKIFDAAKAPIQWEERNVTAIQGPGGKWMIPSEAKESMDKNKMGLKGPLKTPIAAGHPSMNLLLRKTFDLYANVRPCVSIEGYKTPYTDVNIVTIRENTEGEYSGIEHVIVDGVVQSIKLITEGASKRIAEFAFEYARNNHRSNVTAVHKANIMRMSDGLFLQKCREVAESCKDIKFNEMYLDTVCLNMVQDPSQFDVLVMPNLYGDILSDLCAGLIGGLGVTPSGNIGANGVAIFESVHGTAPDIAGKDMANPTALLLSAVMMLRHMGLFDHAARIEAACFATIKDGKSLTKDLGGNAKCSDFTEEICRRVKDLD
chain 2: FSEQTIPPSAKYGGRHTVTMIPGDGIGPELMLHVKSVFRHACVPVDFEEVHVSSNADEEDIRNAIMAIRRNRVALKGNIETNHNLPPSHKSRNNILRTSLDLYANVIHCKSLPGVVTRHKDIDILIVRENTEGEYSSLEHESVAGVVESLKIITKAKSLRIAEYAFKLAQESGRKKVTAVHKANIMKLGAGLFLQCCREVAARYPQITFENMIVDNTTMQLVSRPQQFDVMVMPNLYGNIVNNVCAGLVGGPGLVAGANYGHVYAVFETATRNTGKSIANKNIANPTATLLASCMMLDHLKLHSYATSIRKAVLASMDNENMHTPDIGGQGTTSEAIQDVIRHIRVINGRAVEA
notes: as for B1
B5: αγ heterodimer of human NAD-IDH (IDH3) (Homo sapiens; P50213:Y255F) (protein)
chain 1: TGGVQTVTLIPGDGIGPEISAAVMKIFDAAKAPIQWEERNVTAIQGPGGKWMIPSEAKESMDKNKMGLKGPLKTPIAAGHPSMNLLLRKTFDLYANVRPCVSIEGYKTPYTDVNIVTIRENTEGEYSGIEHVIVDGVVQSIKLITEGASKRIAEFAFEYARNNHRSNVTAVHKANIMRMSDGLFLQKCREVAESCKDIKFNEMYLDTVCLNMVQDPSQFDVLVMPNLFGDILSDLCAGLIGGLGVTPSGNIGANGVAIFESVHGTAPDIAGKDMANPTALLLSAVMMLRHMGLFDHAARIEAACFATIKDGKSLTKDLGGNAKCSDFTEEICRRVKDLD
chain 2: FSEQTIPPSAKYGGRHTVTMIPGDGIGPELMLHVKSVFRHACVPVDFEEVHVSSNADEEDIRNAIMAIRRNRVALKGNIETNHNLPPSHKSRNNILRTSLDLYANVIHCKSLPGVVTRHKDIDILIVRENTEGEYSSLEHESVAGVVESLKIITKAKSLRIAEYAFKLAQESGRKKVTAVHKANIMKLGDGLFLQCCREVAARYPQITFENMIVDNTTMQLVSRPQQFDVMVMPNLYGNIVNNVCAGLVGGPGLVAGANYGHVYAVFETATRNTGKSIANKNIANPTATLLASCMMLDHLKLHSYATSIRKAVLASMDNENMHTPDIGGQGTTSEAIQDVIRHIRVINGRAVEA
notes: as for B1
B6: αγ heterodimer of human NAD-IDH (IDH3) (Homo sapiens; P51553:R167A) (protein)
chain 1: TGGVQTVTLIPGDGIGPEISAAVMKIFDAAKAPIQWEERNVTAIQGPGGKWMIPSEAKESMDKNKMGLKGPLKTPIAAGHPSMNLLLRKTFDLYANVRPCVSIEGYKTPYTDVNIVTIRENTEGEYSGIEHVIVDGVVQSIKLITEGASKRIAEFAFEYARNNHRSNVTAVHKANIMRMSDGLFLQKCREVAESCKDIKFNEMYLDTVCLNMVQDPSQFDVLVMPNLYGDILSDLCAGLIGGLGVTPSGNIGANGVAIFESVHGTAPDIAGKDMANPTALLLSAVMMLRHMGLFDHAARIEAACFATIKDGKSLTKDLGGNAKCSDFTEEICRRVKDLD
chain 2: FSEQTIPPSAKYGGRHTVTMIPGDGIGPELMLHVKSVFRHACVPVDFEEVHVSSNADEEDIRNAIMAIRRNRVALKGNIETNHNLPPSHKSRNNILRTSLDLYANVIHCKSLPGVVTRHKDIDILIVAENTEGEYSSLEHESVAGVVESLKIITKAKSLRIAEYAFKLAQESGRKKVTAVHKANIMKLGDGLFLQCCREVAARYPQITFENMIVDNTTMQLVSRPQQFDVMVMPNLYGNIVNNVCAGLVGGPGLVAGANYGHVYAVFETATRNTGKSIANKNIANPTATLLASCMMLDHLKLHSYATSIRKAVLASMDNENMHTPDIGGQGTTSEAIQDVIRHIRVINGRAVEA
notes: as for B1
B7: αγ heterodimer of human NAD-IDH (IDH3) (Homo sapiens; P51553:K190A) (protein)
chain 1: TGGVQTVTLIPGDGIGPEISAAVMKIFDAAKAPIQWEERNVTAIQGPGGKWMIPSEAKESMDKNKMGLKGPLKTPIAAGHPSMNLLLRKTFDLYANVRPCVSIEGYKTPYTDVNIVTIRENTEGEYSGIEHVIVDGVVQSIKLITEGASKRIAEFAFEYARNNHRSNVTAVHKANIMRMSDGLFLQKCREVAESCKDIKFNEMYLDTVCLNMVQDPSQFDVLVMPNLYGDILSDLCAGLIGGLGVTPSGNIGANGVAIFESVHGTAPDIAGKDMANPTALLLSAVMMLRHMGLFDHAARIEAACFATIKDGKSLTKDLGGNAKCSDFTEEICRRVKDLD
chain 2: FSEQTIPPSAKYGGRHTVTMIPGDGIGPELMLHVKSVFRHACVPVDFEEVHVSSNADEEDIRNAIMAIRRNRVALKGNIETNHNLPPSHKSRNNILRTSLDLYANVIHCKSLPGVVTRHKDIDILIVRENTEGEYSSLEHESVAGVVESLAIITKAKSLRIAEYAFKLAQESGRKKVTAVHKANIMKLGDGLFLQCCREVAARYPQITFENMIVDNTTMQLVSRPQQFDVMVMPNLYGNIVNNVCAGLVGGPGLVAGANYGHVYAVFETATRNTGKSIANKNIANPTATLLASCMMLDHLKLHSYATSIRKAVLASMDNENMHTPDIGGQGTTSEAIQDVIRHIRVINGRAVEA
notes: as for B1
B8: αγ heterodimer of human NAD-IDH (IDH3) (Homo sapiens; P51553:Y174F) (protein)
chain 1: TGGVQTVTLIPGDGIGPEISAAVMKIFDAAKAPIQWEERNVTAIQGPGGKWMIPSEAKESMDKNKMGLKGPLKTPIAAGHPSMNLLLRKTFDLYANVRPCVSIEGYKTPYTDVNIVTIRENTEGEYSGIEHVIVDGVVQSIKLITEGASKRIAEFAFEYARNNHRSNVTAVHKANIMRMSDGLFLQKCREVAESCKDIKFNEMYLDTVCLNMVQDPSQFDVLVMPNLYGDILSDLCAGLIGGLGVTPSGNIGANGVAIFESVHGTAPDIAGKDMANPTALLLSAVMMLRHMGLFDHAARIEAACFATIKDGKSLTKDLGGNAKCSDFTEEICRRVKDLD
chain 2: FSEQTIPPSAKYGGRHTVTMIPGDGIGPELMLHVKSVFRHACVPVDFEEVHVSSNADEEDIRNAIMAIRRNRVALKGNIETNHNLPPSHKSRNNILRTSLDLYANVIHCKSLPGVVTRHKDIDILIVRENTEGEFSSLEHESVAGVVESLKIITKAKSLRIAEYAFKLAQESGRKKVTAVHKANIMKLGDGLFLQCCREVAARYPQITFENMIVDNTTMQLVSRPQQFDVMVMPNLYGNIVNNVCAGLVGGPGLVAGANYGHVYAVFETATRNTGKSIANKNIANPTATLLASCMMLDHLKLHSYATSIRKAVLASMDNENMHTPDIGGQGTTSEAIQDVIRHIRVINGRAVEA
notes: as for B1

Each protein was assayed on O=C(O)CC(C(=O)O)C(O)C(=O)O (assay: purified protein). Conditions: no activators, 2 mM Mn2+, 3.2 mM NAD, 33 mM Tris-acetate pH 7.4, 25 °C, Hill 2.0, racemic DL-ICT varied, Hill 1.0.
Format: biochemical, Homo sapiens

Point of comparison: B3, K0.5 14.8 ± 0.5 mM. Against it:
- B1 — 3.3-fold lower, 4.51 ± 0.43 mM
- B2 — within 1.5-fold, 19.3 ± 1.0 mM

Point of comparison: B2, kcat/Km 210 ± 10 M⁻¹ s⁻¹. Against it:
- B1 — 1.6-fold higher, 330 ± 10 M⁻¹ s⁻¹
- B3 — within 1.5-fold, 250 ± 10 M⁻¹ s⁻¹

Same assay, conditions: no activators, 2 mM Mn2+, 3.2 mM NAD, 33 mM Tris-acetate pH 7.4, 25 °C, Hill 2.0, racemic DL-ICT varied, Hill 1.1

Point of comparison: B6, K0.5 8.57 ± 0.42 mM. Against it:
- B4 — within 1.5-fold, 10.2 ± 0.6 mM
- B5 — 1.7-fold higher, 14.5 ± 0.9 mM
- B7 — within error, 8.12 ± 0.16 mM
- B8 — within error, 8.80 ± 0.54 mM

Point of comparison: B6, kcat/Km 260 ± 10 M⁻¹ s⁻¹. Against it:
- B4 — 2.8-fold higher, 730 ± 40 M⁻¹ s⁻¹
- B5 — 5.7-fold lower, 46 ± 2 M⁻¹ s⁻¹
- B7 — 2.9-fold lower, 90 ± 2 M⁻¹ s⁻¹
- B8 — within error, 270 ± 10 M⁻¹ s⁻¹
